# Results: article PMC5318895, “Inhibition of N1-Src kinase by a specific SH3 peptide ligand reveals a role for N1-Src in neurite elongation by L1-CAM” (Scientific Reports, 2017)
# No end group written: not given here.
# What was measured:
# N1-Src [1] = target: T1, N1-Src (Rattus norvegicus, UniProt Q9WUD9); experiment: morphology of COS7 cells transfected with N1-Src-FLAG; type: cell-based; conditions: for effect on N1-Src-induced shrinkage of the cell soma (cell area) / effect on number of neurites (processes) per cell: COS7, co-transfection with N1-Src-FLAG 48 h, mean, n = 3 experiments, one way ANOVA
# Description: (§1) Previous studies have shown that soluble SH3 ligands can enhance Src family kinase activity in vitro[20][21]. […] This experiment raised the possibility that PDN1 could act as an N1-Src inhibitor in cells. […] We observed that COS7 cells transfected with N1-Src-FLAG underwent a striking change in morphology within 48 h (Fig. 3a). Similar to that previously observed in Xenopus epithelial cells, overexpression of the kinase induced the growth of neurite-like processes (Fig. 3b) and an approximate 35% reduction in area of the cell soma (Fig. 3c). […] Using cell morphology as a readout, we assessed the effect of CFP-PDN1 and PDN1(P5A) on N1-Src activity in cells. […] Furthermore, the peptides had no significant effect upon the morphology of C-Src transfected cells. We also assessed the effect of PDN1 on N2-Src expressing cells because the first five amino acids of its SH3 insert are identical to that in N1-Src[3].
# Figure 3 CFP-PDN1 inhibits the biological activity of N1-Src in cells. (a) COS7 cells were transfected for 48 h with empty plasmid (FLAG), C-, N1- or N2-Src-FLAG in combination with CFP, CFP-PDN1 or CFP-PDN1(P5A) and processed for immunofluorescence (green = CFP, red = Src-FLAG). Scale bar = 10 μm. Twenty representative fields of view (~50 cells) per condition in each experiment were analysed to quantify (b) number of processes per cell and (c). Data were plotted as mean ± SEM (n = 3 experiments). Statistical analysis was performed by one way ANOVA and post-hoc Tukey test (*P < 0.05; ***P < 0.001; n.s = not significant).
# COS7 cells were plated at a density of 3 × 10^4 cells per well of a 24 well plate or 10^5 cells per well of a 6 well plate and transfected using EcoTransfect 24 h after plating according to the manufacturer’s instructions (Oz Biosciences, Marseille, France). Rat cerebellar granule and hippocampal neurons were prepared as previously described[40][41] and approved by the Biology Ethics Committee, University of York. The animals were euthanised according to Schedule 1 of the UK Home Office Animals (Scientific Procedures) Act. Neurons were plated at a density of 2.5 × 10^5 cells per coverslip and transfected after 24 h using a calcium phosphate kit (Promega, Southampton, UK) or Lipofectamine2000 (Invitrogen, Paisley UK) according to the manufacturer’s instructions. Following transfection the medium was replaced with MEM culture medium with 10 μM arabinofuranosyl cytidine for the indicated time before fixing for staining and morphological analysis. For L1-CAM assays, a 10 μl droplet containing 25 μg/ml L1-CAM extracellular domain (R&D Systems) and 1 mg/ml fluorescein isothiocyanate (FITC) was spotted onto the centre of a poly-D-lysine coated coverslip and air dried for 1 h prior to plating neurons.
# Analysis of COS7 cell area was performed with ImageJ software. The NeuronJ plugin[43] was used for the quantification of process length and branching in both COS7 cells and neurons. Where appropriate, statistical analyses of the data were performed with SigmaPlot software using one way ANOVA or Kruskal-Wallis tests with post-hoc pairwise comparisons by Tukey or Dunn tests respectively.
# N1-Src [2] = target: T1, N1-Src; experiment: co-immunoprecipitation of N1-Src-FLAG and CFP-PDN1 from COS7 cells; type: binding; parameters: His; made in house; host or cells: E. coli; conditions: COS7 cells co-transfected with N1-Src-FLAG, lysed after 48 h; anti-FLAG IP, anti-GFP detection
# [3] = tested on: cerebellar granule neurons; experiment: L1-CAM-dependent neurite elongation in cultured cerebellar granule neurons; type: cell-based, rat; conditions: n = 3 experiments
# Text: A previous study of Src^−/− mice provided a possible mechanism for the effects of N1-Src upon neurite development. […] Src^−/− mice lack C-, N1- and N2-Src, but the isoform responsible for the impaired neurite outgrowth on L1-CAM was not identified in the study. We therefore investigated whether PDN1 affects L1-CAM-dependent neurite growth in cultured CGNs. Recombinant L1-CAM extracellular domain mixed with the fluorescent dye FITC were spotted in the centre of poly-D-lysine (polyLys) coated glass coverslips (Fig. 6a). CGNs were then plated over the whole surface of the coverslip, allowing a direct comparison between neurons growing on L1-CAM and polyLys.
# Figure 6 PDN1 inhibits neurite elongation mediated by L1-CAM. (a) Schematic of the poly-D-lysine (polyLys) coated coverslips treated with a droplet of L1-CAM and FITC. […] (b) Cultured cerebellar granule neurons transfected with CFP were grown on the indicated concentrations of L1-CAM and the length of the longest neurite (axon) determined. (c,d) CGNs were plated on polyLys coated coverslips with a region of […] L1-CAM (see a) and transfected after 24 h with CFP (control) or CFP-PDN1 for 48 h prior to fixing and processing for fluorescence microscopy. Length of longest neurite (c) and branches on the longest neurite (d) were quantified for neurons in the polyLys or L1-CAM regions using the NeuronJ plugin for ImageJ. All data were plotted as mean ± SEM, n = 3 experiments with 30 cells analysed per condition for each experiment. Statistical analysis was performed by one way ANOVA and post-hoc Tukey test (*P < 0.05; **P < 0.01; n.s = not significant).
# Using a concentration of 25 μg/ml L1-CAM, which induced a 50% increase in neurite length, we then determined the effect of CFP-PDN1 transfection on neurite length on L1-CAM or polyLys. […]
# (§2) Analysis of COS7 cell area was performed with ImageJ software. The NeuronJ plugin[43] was used for the quantification of process length and branching in both COS7 cells and neurons. […]
# N2-Src = experiment: morphology of COS7 cells transfected with N2-Src-FLAG; type: cell-based; conditions: COS7, co-transfection with N2-Src-FLAG 48 h; n = 3 experiments
# Description: as §1
# Figure 3 CFP-PDN1 inhibits the biological activity of N1-Src in cells. […] Twenty representative fields of view (~50 cells) per condition in each experiment were analysed to quantify (b) number of processes per cell and (c). […]
# as §2
# [4] = tested on: cerebellar granule neurons; experiment: neurite outgrowth of cultured cerebellar granule neurons (polyLys); type: cell-based, rat; conditions: n = 3 experiments, 30 cells per condition
# Description: We next took advantage of the specificity of PDN1 to investigate the role of endogenous N1-Src in neurite outgrowth in cultured neurons. CFP-PDN1 or -PDN1(P5A) was transfected into 1 DIV CGNs and their morphology analysed after […]. During CGN development in vivo and immediately after plating in vitro, the cells grow two processes before polarising to yield a single axon and the second process retracts to become a dendrite and further dendrites are initiated. The axon then extends further before bifurcating. […] To further confirm that N1-Src regulates neurite growth we employed an shRNA expressing plasmid (pSUPER-GFP) to knockdown N1-Src in neurons. […] The successful N1-Src shRNA plasmid was transfected into hippocampal neurons, and the length of the longest neurite in GFP-positive neurons was assessed at 48 h and 96 h post-transfection. […] Thus, perturbing N1-Src activity with PDN1 or knockdown of the protein produces the same neurite phenotype in primary neuronal cultures.
# Figure 4 PDN1 inhibits neurite growth in cultured neurons. (a) Cultured cerebellar granule neurons were transfected 24 h after plating with CFP, CFP-PDN1 or CFP-PDN1(P5A) for 48 h prior to fixing and processing for immunofluorescence. Scale bar = 10 μm. (b,c) Length of longest neurite and branches per longest neurite were quantified using the NeuronJ plugin for ImageJ. Data were plotted as mean ± SEM, n = 3 experiments with 30 cells analysed per condition for each experiment. Statistical analysis was performed by one way ANOVA and post-hoc Tukey test (*P < 0.05; ***P < 0.001; n.s = not significant).
# COS7 cells were plated at a density of 3 × 10^4 cells per well of a 24 well plate or 10^5 cells per well of a 6 well plate and transfected using EcoTransfect 24 h after plating according to the manufacturer’s instructions (Oz Biosciences, Marseille, France). […]
# as §2
# N1-Src [5] = target: T1, N1-Src; experiment: inhibition of N1-Src phosphorylation of GST-Y by free soluble peptide; type: biochemical; parameters: His; made in house; host or cells: E. coli; conditions: free soluble peptide titrated with 5 nM N1-Src and GST-Y; phosphotyrosine immunoblot densitometry; n = 3
# Description: Previous studies have shown that soluble SH3 ligands can enhance Src family kinase activity in vitro[20][21]. […] This experiment raised the possibility that PDN1 could act as an N1-Src inhibitor in cells. […] We observed that COS7 cells transfected with N1-Src-FLAG underwent a striking change in morphology within 48 h (Fig. 3a). Similar to that previously observed in Xenopus epithelial cells, overexpression of the kinase induced the growth of neurite-like processes (Fig. 3b) and an approximate 35% reduction in area of the cell soma (Fig. 3c). […] Using cell morphology as a readout, we assessed the effect of CFP-PDN1 and PDN1(P5A) on N1-Src activity in cells. […] We also assessed the effect of PDN1 on N2-Src expressing cells because the first five amino acids of its SH3 insert are identical to that in N1-Src[3].
# Figure 2 PDN1 inhibits N1-Src activity in vitro. GST-Y was incubated with 5 nM N1-Src and the indicated concentrations of either PDN1 or PDN1(P5A) and the extent of phosphorylation determined by densitometry of phosphotyrosine immunoreactivity. […]
# Phosphorylation reactions were performed as previously described, prepared in kinase reaction buffer (100 mM Tris, 10 mM MgCl2, pH 7.5) and initiated by the addition of pre-warmed ATP (0.5 mM final concentration) and incubated at 30 °C for the indicated times. […] Due to the non-quantitative measurement of V, Vmax was not determined. […]
# [6] = CGNs transfected with CFP fusions, one way ANOVA
molecule,measurement,setting,value
"CFP-PDN1(P5A): PDN1(P5A) mutant fused to CFP, expressed in transfected cells (WHRMAAYTAKYP; also: fused to CFP, end not given here)",effect on N1-Src-induced shrinkage of the cell soma (cell area),N1-Src [1],no significant effect on either parameter
same,effect on number of neurites (processes) per cell,N1-Src [1],no significant effect on either parameter
same,binding to N1-Src in cells (co-immunoprecipitation),N1-Src [2],greatly reduced
"CFP-PDN1: PDN1 fused to CFP, expressed in transfected cells (WHRMPAYTAKYP; also: fused to CFP, end not given here)",effect on N1-Src-induced shrinkage of the cell soma (cell area),N1-Src [1],prevented both the shrinkage of the cell soma
same,effect on number of neurites (processes) per cell,N1-Src [1],reduced the number of neurites per cell
same,selectivity for N1-Src in cells,"N1-Src [1]; COS7, compared with C-Src and N2-Src",selective for the N1-Src splice variant in cells
same,length of longest neurite on L1-CAM compared with polyLys,"[3]; CFP-PDN1 transfected CGNs on L1-CAM (25 μg/ml in text), 48 h, 30 cells per condition",not significantly different to that on polyLys
same,binding to N1-Src in cells (co-immunoprecipitation),N1-Src [2],can bind N1-Src in cells
same,rescue of morphology of N2-Src transfected cells,N2-Src,did not rescue wild type morphology
same,inhibition of mean length of longest neurite on polyLys,"[4]; CGNs grown on polyLys, transfected 24 h after plating, 48 h",approximately 40%
same,branches per longest neurite,[4]; [6],longest neurite branching was inhibited
same,length of longest neurite,[4]; [6],reduced in length
PDN1(P5A): PDN1(P5A) mutant peptide (WHRMAAYTAKYP),inhibition of GST-Y phosphorylation,N1-Src [5],no significant inhibition
"L1-CAM: Recombinant L1-CAM extracellular domain (R&D Systems) (protein, UniProt P32004 20-1120, looked up, extracellular domain) extracellular domain: IQIPEEYEGHHVMEPPVITEQSPRRLVVFPTDDISLKCEASGKPEVQFRWTRDGVHFKPKEELGVTVYQSPHSGSFTITGNNSNFAQRFQGIYRCFASNKLGTAMSHEIRLMAEGAPKWPKETVKPVEVEEGESVVLPCNPPPSAEPLRIYWMNSKILHIKQDERVTMGQNGNLYFANVLTSDNHSDYICHAHFPGTRTIIQKEPIDLRVKATNSMIDRKPRLLFPTNSSSHLVALQGQPLVLECIAEGFPTPTIKWLRPSGPMPADRVTYQNHNKTLQLLKVGEEDDGEYRCLAENSLGSARHAYYVTVEAAPYWLHKPQSHLYGPGETARLDCQVQGRPQPEVTWRINGIPVEELAKDQKYRIQRGALILSNVQPSDTMVTQCEARNRHGLLLANAYIYVVQLPAKILTADNQTYMAVQGSTAYLLCKAFGAPVPSVQWLDEDGTTVLQDERFFPYANGTLGIRDLQANDTGRYFCLAANDQNNVTIMANLKVKDATQITQGPRSTIEKKGSRVTFTCQASFDPSLQPSITWRGDGRDLQELGDSDKYFIEDGRLVIHSLDYSDQGNYSCVASTELDVVESRAQLLVVGSPGPVPRLVLSDLHLLTQSQVRVSWSPAEDHNAPIEKYDIEFEDKEMAPEKWYSLGKVPGNQTSTTLKLSPYVHYTFRVTAINKYGPGEPSPVSETVVTPEAAPEKNPVDVKGEGNETTNMVITWKPLRWMDWNAPQVQYRVQWRPQGTRGPWQEQIVSDPFLVVSNTSTFVPYEIKVQAVNSQGKGPEPQVTIGYSGEDYPQAIPELEGIEILNSSAVLVKWRPVDLAQVKGHLRGYNVTYWREGSQRKHSKRHIHKDHVVVPANTTSVILSGLRPYSSYHLEVQAFNGRGSGPASEFTFSTPEGVPGHPEALHLECQSNTSLLLRWQPPLSHNGVLTGYVLSYHPLDEGGKGQLSFNLRDPELRTHNLTDLSPHLRYRFQLQATTKEGPGEAIVREGGTMALSGISDFGNISATAGENYSVVSWVPKEGQCNFRFHILFKALGEEKGGASLSPQYVSYNQSSYTQWDLQPDTDYEIHLFKERMFRHQMAVKTNGTGRVRLPPAGFATE",increase in neurite length by L1-CAM,"[3]; 25 μg/ml L1-CAM coating, CFP-transfected CGNs",50%
same,neurite outgrowth on L1-CAM,[3]; CFP-transfected CGNs on indicated L1-CAM concentrations,increases neurite outgrowth in a dose dependent manner
